The target in assay [1] is T1, extracellular domain (ECD) of human DLL3 (AdipoGen Life Sciences) (human, UniProt Q9NYJ7 27-492).
T1 construct: Bought and further purified by size exclusion chromatography; also called hDLL3 ECD; DLL3 ECD
T1 sequence: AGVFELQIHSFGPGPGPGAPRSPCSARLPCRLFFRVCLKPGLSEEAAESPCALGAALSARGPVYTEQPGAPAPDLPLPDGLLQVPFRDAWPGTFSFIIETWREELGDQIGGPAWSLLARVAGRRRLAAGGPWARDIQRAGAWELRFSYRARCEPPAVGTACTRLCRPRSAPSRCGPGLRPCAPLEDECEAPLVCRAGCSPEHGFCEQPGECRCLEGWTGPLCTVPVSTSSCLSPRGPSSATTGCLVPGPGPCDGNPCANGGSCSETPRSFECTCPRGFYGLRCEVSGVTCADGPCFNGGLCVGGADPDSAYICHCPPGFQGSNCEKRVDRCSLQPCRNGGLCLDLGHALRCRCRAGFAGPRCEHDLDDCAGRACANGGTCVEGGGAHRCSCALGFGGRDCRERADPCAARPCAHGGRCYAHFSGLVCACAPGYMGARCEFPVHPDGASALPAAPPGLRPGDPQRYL
Put plainly: SPR (Biacore 8K), 37 C, antibody captured on anti-mouse Fc; same values as in Table 36. An excerpt:
(§1) The binding kinetics of different anti-DLL3 antibodies to recombinant proteins of different domains of human DLL3 were studied by surface plasmon resonance (SPR) using a Biacore™ 8K instrument. These anti-DLL3 antibodies were produced from mouse hybridomas, and each included a heavy chain variable region and light chain variable region described herein. Briefly, antibodies recognizing human IgG Fc and antibodies recognizing mouse IgG Fc were immobilized on different channels of a Biacore™ 8K chip to allow simultaneous analysis of human and murine anti-DLL3 antibodies. Murine anti-DLL3 antibodies were captured on the anti-mouse Fc channel of the Biacore chip. The human anti-DLL3 antibody from Stemcentrx (San Francisco, Calif.) was used as a control and was captured onto anti-human Fc channel of the Biacore™ chip. Different concentrations of DLL3 ECD, DLL3 N-terminal domain, EGF2-6, EGF3-6, EGF4-6, or EGF5-6 domains of DLL3 were injected. Experiments were performed at 37° C. Biacore™ 8K evaluation software was used for all data analysis. To obtain kinetic rate constants double-referenced data were fit to a 1:1 interaction model using Biacore™ 8K Evaluation software (GE Healthcare, Marlborough, Mass.). The equilibrium binding constant KD was determined by the ratio of binding rate constants kd/kₐ.
Table 36 lists the calculated binding kinetics (KD). […]

For assay [2], the target named is T2, recombinant human DLL3 (ELISA coat) (human, UniProt Q9NYJ7 27-492).
T2 sequence: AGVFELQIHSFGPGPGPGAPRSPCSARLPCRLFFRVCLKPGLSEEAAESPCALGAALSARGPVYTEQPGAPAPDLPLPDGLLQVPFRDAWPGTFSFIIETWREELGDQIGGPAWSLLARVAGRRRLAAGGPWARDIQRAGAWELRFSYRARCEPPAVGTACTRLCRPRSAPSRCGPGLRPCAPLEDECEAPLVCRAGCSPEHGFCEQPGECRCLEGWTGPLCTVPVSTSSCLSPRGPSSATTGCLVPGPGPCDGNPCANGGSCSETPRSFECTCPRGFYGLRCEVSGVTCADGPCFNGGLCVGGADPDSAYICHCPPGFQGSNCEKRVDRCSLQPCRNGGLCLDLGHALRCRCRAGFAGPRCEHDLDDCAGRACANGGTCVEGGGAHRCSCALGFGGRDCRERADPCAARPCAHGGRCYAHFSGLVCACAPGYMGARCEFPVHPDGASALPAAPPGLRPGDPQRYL
Put plainly: ELISA, plate coated with recombinant human DLL3 0.5 µg/ml, anti-mouse IgG-HRP. Put shortly: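 Antibody binding measured on plates coated with recombinant human DLL3 at 0.5 μg/ml, detected with anti-mouse IgG-HRP and TMB substrate. Signals normalized to the matching positive control antibody; EC₅₀ calculated from binding curves.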
A general note: An ELISA detects its analyte on a solid surface through an enzyme-linked reagent.

The target of a further assay is T3, human DLL3-His (human, UniProt Q9NYJ7 27-492).
T3 construct: also called hDLL3
T3 sequence: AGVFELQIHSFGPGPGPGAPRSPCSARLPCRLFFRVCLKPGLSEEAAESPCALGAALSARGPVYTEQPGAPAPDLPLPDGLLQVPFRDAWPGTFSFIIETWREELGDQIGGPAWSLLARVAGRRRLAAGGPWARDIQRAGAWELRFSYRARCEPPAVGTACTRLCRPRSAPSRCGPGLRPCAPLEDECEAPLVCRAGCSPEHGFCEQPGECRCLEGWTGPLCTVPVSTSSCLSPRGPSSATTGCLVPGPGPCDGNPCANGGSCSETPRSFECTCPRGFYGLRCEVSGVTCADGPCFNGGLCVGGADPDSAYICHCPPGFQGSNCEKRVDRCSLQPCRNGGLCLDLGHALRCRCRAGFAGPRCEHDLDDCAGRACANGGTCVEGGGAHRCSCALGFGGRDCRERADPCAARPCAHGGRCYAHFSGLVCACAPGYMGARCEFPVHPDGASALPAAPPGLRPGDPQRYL
The experiment in a line: SPR (Biacore 8K), 37 C, m5E7 captured on anti-mouse Fc, DLL3-His 0.411-300 nM injected, 1:1 fit. The source says: The kinetics of binding of different humanized variants and parental murine 5E7 antibody to human DLL3-His was studied by Surface Plasmon Resonance using a Biacore 8K instrument. Briefly, anti-hFc and anti-mFc IgG proteins were covalently immobilized onto different channels of CMS chip to allow simultaneous analysis of human and murine antibodies. m5E7 was captured on the anti-mouse Fc channel and humanized variants were captured on the anti-human Fc channel at a desired capture level of […] in HBS-EP+ buffer supplemented with 0.1% BSA. Three buffer blanks and human DLL3-His (analyte) at concentrations 0.411-300 nM (in three fold dilutions) were injected over the surface with captured murine or humanized 5E7 for 300 second association time and let dissociate for 600 second at a flow rate of 30 μL/min. The surfaces were subjected to regeneration with three 20-second pulses of 10 mM glycine pH 1.70 at a flow rate of 100 μL/min between every concentration of analyte. The experiment was conducted at 37° C. Data were double referenced and a 1:1 fit model was applied to the sensorgrams in the Biacore Insight Evaluation software.
The kinetic parameters of human DLL3-His binding to murine and humanized variants of 5E7 antibody variants were calculated and shown in Table 39.
In general terms: Surface plasmon resonance follows binding to a sensor surface in real time, without labels.

The target of assay [3] is T4, recombinant His-tagged N-terminal domain of human DLL3 (human, UniProt Q9NYJ7 27-175, limits assumed).
T4 construct: also called DLL3 N-terminal domain
T4 sequence: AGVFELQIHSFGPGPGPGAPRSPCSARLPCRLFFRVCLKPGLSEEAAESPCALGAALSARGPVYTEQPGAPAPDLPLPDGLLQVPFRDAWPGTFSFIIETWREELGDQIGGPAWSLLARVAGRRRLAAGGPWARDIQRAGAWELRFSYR
The experiment in a line: SPR (Biacore 8K), 37 C, antibody captured on anti-mouse Fc.
From the text: as §1, with “kd/kₐ. […]” for “kd/kₐ.”

Assay [4] addresses T5, recombinant His-tagged EGF5-6 domains of human DLL3 (human, UniProt Q9NYJ7 391-492, limits assumed).
T5 sequence: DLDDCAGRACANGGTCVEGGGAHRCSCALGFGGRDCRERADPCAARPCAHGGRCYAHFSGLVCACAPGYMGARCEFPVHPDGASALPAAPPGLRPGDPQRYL
The description is as above.
From the text: as §1, with “kd/kₐ. […]” for “kd/kₐ.”

Assay [5] has as its target T1, extracellular domain (ECD) of human …. The experiment in a line: SPR (Biacore 8K), 37 C, antibody captured on anti-mouse Fc, DLL3 ECD injected, 1:1 fit.
From the text: as §1
Table 36 lists the calculated binding kinetics (KD). […] Stemcentrx anti-DLL3 antibody was used as a control.

What is called Kd is the free concentration of one partner at which half of the binding sites on the other are occupied at equilibrium, for simple one-to-one binding. Usually koff stands for a measure of how fast the partners let go of each other. Read a high koff as a short-lived complex. The term EC50 denotes the concentration giving half of the maximal effect. As a reminder, the kon is the second-order rate constant of association. Low values mean slower complex formation, high ones faster complex formation.

B1: murine anti-DLL3 antibody clone 5E7 (antibody, V domains shown)
VH: EVQLQQSGAELVRPGASVKLSCTASGFNIKDDYIHWVKQWPEQGLEWIGWIDSENGDTEYASKFQGKATMTADTSSNTAYLQLSGLTSEDTAVYYCTTSSYYSYDLFVYWGQGTLVTVSA
VL: DVLMTQTPLTLSVPIGQPASISCKSSQSLLHSNGKTYLNWLLQRPGQSPKLLIYLVSKLESGVPDRFSGSGSGTDFTLKISRVEAEDLGVYYCLQTTHLYTFGGGTKLEIK
notes: Murine antibody produced from a mouse hybridoma, captured on anti-mouse Fc in SPR; also called m5E7; murine 5E7
On to B1, for which the Kd in assay [1] amounted to 0.203 nM; with human DLL3-His it was 1.22 nM; in assay [5], 0.203 nM. Also, the dissociation rate constant (koff) in assay [1] was found to be 6.47e-05 s⁻¹; with human DLL3-His it was 0.00145 s⁻¹; in assay [5], 6.47e-05 s⁻¹. In assay [2], the EC50 came out at 0.07 nM. Also, the kon came to 1.19e+06 M⁻¹ s⁻¹ with human DLL3-His and 319000 M⁻¹ s⁻¹ in assay [5]. In addition, the binding result in assay [3] and in assay [4] was “no binding” each time.
